Patent US20250276077A1, “EPHA2 ANTIBODIES” (Immunome, Inc., priority 2022, published 2025)
One block for each molecule: values may come before it.

Test system: A549 cells
Test: ADCC (KILR target cells, NK92 CD16 chimera effector cells)
Format: cell-based, human
Details: A549 tumor cells; for ADCC - dAct rel. parent, Trial 1: Trial 1, relative to parent antibody; for ADCC - dAct rel. parent, Trial 2: Trial 2, relative to parent antibody
Experimental: To detect Antibody-dependent cellular cytotoxicity (ADCC), KILR™-transfected target cells were opsonized with different concentrations of the antibody at room temperature for 20 minutes. Following, NK92 cells carrying a mouse extracellular-human intracellular CD16 chimera were added at a 5:1 ratio of effector to target cells. After a 4 h co-culture at 37° C. and 5% CO2, pre-mixed KILR™ detection reagent was added to each well at equal volume and allowed to incubate for 30 min at room temperature in the dark before reading luminescence on a pate reader. Cytotoxicity was calculated after background (spontaneous release) subtraction and expressed as percent of a maximum lysis control.

EC50: ~8 pM
B1: AB-010681: VH SEQ ID NO: 634, VL SEQ ID NO: 699; L29SY; L92SH relative to AB-010361 (antibody, V domains shown)
VH: QVQLQQWGAGLLKPSETLSLTCAVYGGSFSGYYWSWIRQPPGKGLEWIGEINHRGSINYNNYNPSLKSRVTISVDTSKNQFSLKLSSVTAADTAVYYCAKPLRPHCTNGVCYSGDAFDIWGQGTMVTVAS
VL: SYVLTQPPSVSVAPGQTARITCGGNNIGYKNVHWYQQKPGQAPVLVVYDDSDRPSGIPEQFSGSNSGNTATLTISRVEAGDEADYYCQVWDHSSDHVVFGGGTKLTVL
ADCC - dAct rel. parent, Trial 1: 152.1% | ADCC - dAct rel. parent, Trial 2: 104.6%

B2: AB-010683: VH SEQ ID NO: 636, VL SEQ ID NO: 701; L30KM; L92SH relative to AB-010361 (antibody, V domains shown)
VH: QVQLQQWGAGLLKPSETLSLTCAVYGGSFSGYYWSWIRQPPGKGLEWIGEINHRGSINYNNYNPSLKSRVTISVDTSKNQFSLKLSSVTAADTAVYYCAKPLRPHCTNGVCYSGDAFDIWGQGTMVTVAS
VL: SYVLTQPPSVSVAPGQTARITCGGNNIGSMNVHWYQQKPGQAPVLVVYDDSDRPSGIPEQFSGSNSGNTATLTISRVEAGDEADYYCQVWDHSSDHVVFGGGTKLTVL
ADCC - dAct rel. parent, Trial 1: 174.8% | ADCC - dAct rel. parent, Trial 2: 100.0%

B3: AB-010672: VH SEQ ID NO: 625, VL SEQ ID NO: 690; L93SR relative to AB-010357 (antibody, V domains shown)
VH: QVQLQQWGAGLLKPSETLSLTCAVYGGSFSDYYWSWIRQPPGKGLEWIGEINHRGSINYNNYNPSLKSRVTISVDTSKNQFSLKLSSVTAADTAVYYCAKPLRPHCTNGVCYSGDAFDIWGQGTMVTVAS
VL: SYVLTQPPSVSVAPGQTARITCGGNNIGSKNVHWYQQKPGQAPVLVVYDDSDRPSGIPEQFSGSNSGNTATLTISRVEAGDEADYYCQVWDSRSDHVVFGGGTKLTVL
ADCC - dAct rel. parent, Trial 1: 162.9%

B4: AB-010678: VH SEQ ID NO: 631, VL SEQ ID NO: 696; L23GR; L92SH relative to AB-010361 (antibody, V domains shown)
VH: QVQLQQWGAGLLKPSETLSLTCAVYGGSFSGYYWSWIRQPPGKGLEWIGEINHRGSINYNNYNPSLKSRVTISVDTSKNQFSLKLSSVTAADTAVYYCAKPLRPHCTNGVCYSGDAFDIWGQGTMVTVAS
VL: SYVLTQPPSVSVAPGQTARITCRGNNIGSKNVHWYQQKPGQAPVLVVYDDSDRPSGIPEQFSGSNSGNTATLTISRVEAGDEADYYCQVWDHSSDHVVFGGGTKLTVL
ADCC - dAct rel. parent, Trial 1: 154.2% | ADCC - dAct rel. parent, Trial 2: 93.9%

B5: AB-010667: VH SEQ ID NO: 620, VL SEQ ID NO: 685; L29SY; L92SH relative to AB-010357 (antibody, V domains shown)
VH: QVQLQQWGAGLLKPSETLSLTCAVYGGSFSDYYWSWIRQPPGKGLEWIGEINHRGSINYNNYNPSLKSRVTISVDTSKNQFSLKLSSVTAADTAVYYCAKPLRPHCTNGVCYSGDAFDIWGQGTMVTVAS
VL: SYVLTQPPSVSVAPGQTARITCGGNNIGYKNVHWYQQKPGQAPVLVVYDDSDRPSGIPEQFSGSNSGNTATLTISRVEAGDEADYYCQVWDHSSDHVVFGGGTKLTVL
ADCC - dAct rel. parent, Trial 1: 154.8% | ADCC - dAct rel. parent, Trial 2: 108.9%

B6: AB-010669: VH SEQ ID NO: 622, VL SEQ ID NO: 687; L30KM; L92SH relative to AB-010357 (antibody, V domains shown)
VH: QVQLQQWGAGLLKPSETLSLTCAVYGGSFSDYYWSWIRQPPGKGLEWIGEINHRGSINYNNYNPSLKSRVTISVDTSKNQFSLKLSSVTAADTAVYYCAKPLRPHCTNGVCYSGDAFDIWGQGTMVTVAS
VL: SYVLTQPPSVSVAPGQTARITCGGNNIGSMNVHWYQQKPGQAPVLVVYDDSDRPSGIPEQFSGSNSGNTATLTISRVEAGDEADYYCQVWDHSSDHVVFGGGTKLTVL
ADCC - dAct rel. parent, Trial 1: 177.7%

B7: AB-010673: VH SEQ ID NO: 626, VL SEQ ID NO: 691; L93SE relative to AB-010357 (antibody, V domains shown)
VH: QVQLQQWGAGLLKPSETLSLTCAVYGGSFSDYYWSWIRQPPGKGLEWIGEINHRGSINYNNYNPSLKSRVTISVDTSKNQFSLKLSSVTAADTAVYYCAKPLRPHCTNGVCYSGDAFDIWGQGTMVTVAS
VL: SYVLTQPPSVSVAPGQTARITCGGNNIGSKNVHWYQQKPGQAPVLVVYDDSDRPSGIPEQFSGSNSGNTATLTISRVEAGDEADYYCQVWDSESDHVVFGGGTKLTVL
ADCC - dAct rel. parent, Trial 1: 166.4%

B8: AB-010664: VH SEQ ID NO: 617, VL SEQ ID NO: 682; L23GR; L92SH relative to AB-010357 (antibody, V domains shown)
VH: QVQLQQWGAGLLKPSETLSLTCAVYGGSFSDYYWSWIRQPPGKGLEWIGEINHRGSINYNNYNPSLKSRVTISVDTSKNQFSLKLSSVTAADTAVYYCAKPLRPHCTNGVCYSGDAFDIWGQGTMVTVAS
VL: SYVLTQPPSVSVAPGQTARITCRGNNIGSKNVHWYQQKPGQAPVLVVYDDSDRPSGIPEQFSGSNSGNTATLTISRVEAGDEADYYCQVWDHSSDHVVFGGGTKLTVL
ADCC - dAct rel. parent, Trial 1: 167.7%

B9: AB-010684: VH SEQ ID NO: 637, VL SEQ ID NO: 702; H107TI; L92SH relative to AB-010361 (antibody, V domains shown)
VH: QVQLQQWGAGLLKPSETLSLTCAVYGGSFSGYYWSWIRQPPGKGLEWIGEINHRGSINYNNYNPSLKSRVTISVDTSKNQFSLKLSSVTAADTAVYYCAKPLRPHCINGVCYSGDAFDIWGQGTMVTVAS
VL: SYVLTQPPSVSVAPGQTARITCGGNNIGSKNVHWYQQKPGQAPVLVVYDDSDRPSGIPEQFSGSNSGNTATLTISRVEAGDEADYYCQVWDHSSDHVVFGGGTKLTVL
ADCC - dAct rel. parent, Trial 1: 166.6% | ADCC - dAct rel. parent, Trial 2: 115.4%

B10: AB-010674: VH SEQ ID NO: 627, VL SEQ ID NO: 692; L29SY; L93SE relative to AB-010357 (antibody, V domains shown)
VH: QVQLQQWGAGLLKPSETLSLTCAVYGGSFSDYYWSWIRQPPGKGLEWIGEINHRGSINYNNYNPSLKSRVTISVDTSKNQFSLKLSSVTAADTAVYYCAKPLRPHCTNGVCYSGDAFDIWGQGTMVTVAS
VL: SYVLTQPPSVSVAPGQTARITCGGNNIGYKNVHWYQQKPGQAPVLVVYDDSDRPSGIPEQFSGSNSGNTATLTISRVEAGDEADYYCQVWDSESDHVVFGGGTKLTVL
ADCC - dAct rel. parent, Trial 1: 171.2% | ADCC - dAct rel. parent, Trial 2: 97.2%

B11: AB-010670: VH SEQ ID NO: 623, VL SEQ ID NO: 688; H107TI; L92SH relative to AB-010357 (antibody, V domains shown)
VH: QVQLQQWGAGLLKPSETLSLTCAVYGGSFSDYYWSWIRQPPGKGLEWIGEINHRGSINYNNYNPSLKSRVTISVDTSKNQFSLKLSSVTAADTAVYYCAKPLRPHCINGVCYSGDAFDIWGQGTMVTVAS
VL: SYVLTQPPSVSVAPGQTARITCGGNNIGSKNVHWYQQKPGQAPVLVVYDDSDRPSGIPEQFSGSNSGNTATLTISRVEAGDEADYYCQVWDHSSDHVVFGGGTKLTVL
ADCC - dAct rel. parent, Trial 1: 178.2%
